# In US20170044260A1 (Innovent, published 2017):
# Columns and labels:
# cynoPD-1_Fc = cynoPD-1_Fc (cyno, UniProt B0LAJ3 25-170); assay: bio-layer interferometry (ForteBio), monovalent: Fab in solution, cynoPD-1_Fc on sensor tip
# human PD-1 on cells [1] = target: T1, human PD-1 on cells (human, UniProt Q15116 25-288); assay: flow cytometry blocking: CHO cells with human PD-1, 100 nM antibody, then PD-L2-FITC (competitor); remaining PD-L2-FITC signal
# cynoPD-1_Fc (cyno) = cynoPD-1_Fc (cyno) (UniProt B0LAJ3); assay: bio-layer interferometry (ForteBio), monovalent: Fab in solution, cynoPD-1_Fc on sensor tip
# Sequence of cynoPD-1_Fc (cyno) (B0LAJ3 entry or part of it limits assumed): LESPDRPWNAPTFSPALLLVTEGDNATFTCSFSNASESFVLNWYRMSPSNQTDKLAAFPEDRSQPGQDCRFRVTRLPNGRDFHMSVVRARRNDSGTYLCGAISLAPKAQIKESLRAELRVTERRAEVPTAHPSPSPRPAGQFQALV
# human PD-1 on cells [2] = target: T1, human PD-1 on cells; assay: cell-based or functional assay
# human PD-1 on cells [3] = target: T1, human PD-1 on cells; assay: flow cytometry on CHO cells with human PD-1, PE-labelled secondary antibody
# Procedure: Cells are then washed 3×, and are incubated with a secondary antibody (PE-labelled, at final concentration of 5 μg/ml) in PBS 1% BSA for 30 min on ice (protected from light). Cells are washed 3× and analyzed via flow cytometry. Flow cytometry is performed on an Accuri C6 system (BD Biosciences) and MFIs are calculated on the C6 software. EC50s are calculated on Graphpad software.
# human PD-1 on cells [4] = target: T1, human PD-1 on cells; assay: cell-based or functional assay; remark: listed apart in the source
# hPD-1_Fc [5] = target: T2, hPD-1_Fc (human, UniProt Q15116 25-167, limits assumed); assay: bio-layer interferometry (ForteBio), monovalent: Fab in solution, hPD-1_Fc on sensor tip
# T2 construct: also called human PD-1_Fc; not shown: Fc part
# T2 sequence (Q15116 25-167 limits assumed): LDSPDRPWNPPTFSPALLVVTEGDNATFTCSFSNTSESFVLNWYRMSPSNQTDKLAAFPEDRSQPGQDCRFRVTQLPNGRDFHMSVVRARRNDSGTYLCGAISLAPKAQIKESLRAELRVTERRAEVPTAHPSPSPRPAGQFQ
# hPD-1_Fc [6] = target: T2, hPD-1_Fc; assay: bio-layer interferometry, PD-1_Fc on the sensor tip; reference nivolumab and pembrolizumab
# [7] = target: T3, human PD-1 (antigen of the avid KD measurement by MSD) (human, UniProt Q15116 25-167, limits assumed); assay: MSD solution equilibrium titration, avid KD against human PD-1; avid KD, IgG1 format
# T3 sequence (Q15116 25-167 limits assumed): as above
# Procedure: (§1) Equilibrium affinity measurements are performed as previously described (Estep, P., et al., MAbs, 2013. 5(2): p. 270-8). […] Antibodies diluted at 20 nM in PBS are coated onto standard bind MSD-ECL plates overnight at 4° C. or at room temperature for 30 min. Plates are blocked with BSA for 30 min whilst shaking at 700 rpm. Plates are then washed 3× with wash buffer (PBSF+0.05% Tween 20). SET samples are applied and incubated on the plates for 150 s with shaking at 700 rpm followed by one wash. Antigen captured on a plate is detected with 250 ng/mL sulfotag-labeled streptavidin in PBSF by incubation on the plate for 3 min. The plates are washed three times with wash buffer and are then read on the MSD Sector Imager 2400 instrument using 1× Read Buffer T with surfactant. The percent free antigen is plotted as a function of titrated antibody in Prism and fit to a quadratic equation to extract the KD. To improve throughput, liquid handling robots are used throughout MSD-SET experiments, including for SET sample preparation.
# b-PD-1 monomer [8] = target: T4, b-PD-1 monomer (human, UniProt Q15116 25-167, limits assumed, biotinylated (b-); site not stated); assay: MSD solution equilibrium titration, monovalent KD against human PD-1; monovalent KD, IgG1 format
# T4 construct: also called human PD-1; antigen of the MSD assay
# T4 sequence (Q15116 25-167 limits assumed): as above
# Procedure: as §1
# hPD-1_HIS [9] = target: T5, hPD-1_HIS (human, UniProt Q15116 25-167, limits assumed); assay: bio-layer interferometry, antibody on the sensor tip; reference nivolumab and pembrolizumab
# T5 construct: not shown: His tag
# T5 sequence (Q15116 25-167 limits assumed): as above
# hPD-1_HIS [10] = target: T5, hPD-1_HIS; assay: bio-layer interferometry (ForteBio), monovalent: hPD-1_HIS in solution, IgG on sensor tip
# Procedure: Briefly, ForteBio affinity measurements are performed by loading IgGs online onto AHQ sensors. Sensors are equilibrated off-line in assay buffer for 30 min and then monitored on-line for 60 seconds for baseline establishment. Sensors with loaded IgGs are exposed to 100 nM antigen for 5 min, afterwards they are transferred to assay buffer for 5 min for off-rate measurement. Kinetics are analyzed using the 1:1 binding model.
# [11] = target: T6, human PD-1-Fc (R&D Systems) (human, UniProt Q15116 25-167); assay: SPR (Biacore T200), human PD-1-Fc immobilized, antibody as analyte, 37° C.
# T6 construct: not shown: Fc part of the bought fusion protein; not described
# T6 sequence (Q15116 25-167 limits assumed): as above
# Procedure: (§2) All sample analytes are run in 3-fold series dilutions from their starting concentration (90 nM), 8 total dilutions with one duplicate at a middle concentration and a zero. The analysis is performed at 37° C. The contact time for each sample is 180 sec at 30 μl/min. The dissociation time: 300 seconds for 5 lower concentrations and 1200 (Fab), or 2400 (T=0) or 3000 (4 weeks 4° C., 25° C., 40° C.) seconds for 3 higher concentrations. The immobilized surface is regenerated for 6-8 seconds with 0.4% SDS at 30 ul/min, and then stabilized for 5 seconds. Binding kinetics are analyzed using the Biacore T200 Evaluation software (Version 3.0). Data are referenced to a blank flow cell, and the data are fit to a 1:1 binding model.
# [12] = target: T7, biotinylated PD-1-Fc fusion protein (human, UniProt Q15116 25-170, limits assumed, biotinylated; site not stated); assay: ELISA blocking: antibody mixed with biotinylated PD-1-Fc, plate coated with PD-L1-Fc (competitor)
# T7 construct: also called human PD-1; not shown: Fc part; not described
# T7 sequence (Q15116 25-170 limits assumed): as the sequence (B0LAJ3 entry or part of it limits assumed) above, with E2D, A10P, L19V, A35T, R75Q, A144T counted along it
# [13] = target: T6, human PD-1-Fc (R&D Systems); assay: SPR (Biacore T200), human PD-1-Fc immobilized, antibody stored 4 weeks at 4° C. as analyte, 37° C.
# Procedure: as §2
# [14] = target: T6, human PD-1-Fc (R&D Systems); assay: SPR (Biacore T200), human PD-1-Fc immobilized, antibody stored 4 weeks at 40° C. as analyte, 37° C.
# Procedure: as §2
# [15] = target: T7, biotinylated PD-1-Fc fusion protein; assay: ELISA blocking: antibody mixed with biotinylated PD-1-Fc, plate coated with PD-L2-Fc (competitor)
# [16] = target: T6, human PD-1-Fc (R&D Systems); assay: SPR (Biacore T200), human PD-1-Fc immobilized, antibody stored 4 weeks at 25° C. as analyte, 37° C.
# Procedure: as §2
# [17] = target: T3, human PD-1 (antigen of the avid KD …); assay: MSD solution equilibrium titration, avid KD against human PD-1
# Procedure: as §1
# b-PD-1 monomer [18] = target: T4, b-PD-1 monomer; assay: MSD solution equilibrium titration, monovalent KD against human PD-1
# Procedure: as §1
# Sequence of cynoPD-1_Fc (B0LAJ3 entry or part of it limits assumed): as the sequence (B0LAJ3 entry or part of it limits assumed) above
# T1 sequence (Q15116 25-288 limits assumed): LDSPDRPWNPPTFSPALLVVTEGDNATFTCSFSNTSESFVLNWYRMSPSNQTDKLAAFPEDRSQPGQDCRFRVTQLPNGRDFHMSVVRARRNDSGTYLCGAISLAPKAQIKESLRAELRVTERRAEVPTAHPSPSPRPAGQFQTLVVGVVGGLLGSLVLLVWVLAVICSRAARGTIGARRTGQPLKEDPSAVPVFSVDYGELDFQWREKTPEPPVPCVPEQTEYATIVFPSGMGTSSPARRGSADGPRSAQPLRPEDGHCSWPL
molecule,measurement,setting,value
Fab of Nivolumab in IgG1 format,Kd,cynoPD-1_Fc,1.2 nM
control IgG (antibody),MFI (PD-L2-FITC),human PD-1 on cells [1],183000 MFI
Fab of Pembrolizumab in IgG1 format,Kd,cynoPD-1_Fc (cyno),0.47 nM
"Antibody G (S228P IgG4) (antibody, V domains shown) VH: QVQLVQSGAEVKKPGSSVRVSCKASGGTLSSYAISWVRQAPGQGLEWMGLIIPMFGAAGYAQRFQGRVTITADESASTAYMELSSLRSEDTAVYYCARAEHSSTGTFDYWGQGTLVTVSS VL: DIQMTQSPSSVSASVGDRVTITCRASQGISSWLAWYQQKPGKAPKLLISAASSLQSGVPSRFSGSGSGTDFTLTISSLQPEDFATYYCQQANHLPFTFGGGTKVEIKR","IL-2 secretion fold change vs. IgG control, 0.01 nM IgG (mixed lymphocyte reaction)",human PD-1 on cells [2],1.36 fold
same,"IL-2 secretion fold change vs. IgG control, 0.1 nM IgG (mixed lymphocyte reaction)",human PD-1 on cells [2],1.91 fold
same,"IL-2 secretion fold change vs. IgG control, 1 nM IgG (mixed lymphocyte reaction)",human PD-1 on cells [2],3.12 fold
same,"IL-2 secretion fold change vs. IgG control, 10 nM IgG (mixed lymphocyte reaction)",human PD-1 on cells [2],2.62 fold
same,"IL-2 secretion fold change vs. IgG control, 100 nM IgG (mixed lymphocyte reaction)",human PD-1 on cells [2],2.45 fold
same,EC50,human PD-1 on cells [3],1.76 nM
same,"IFN-γ secretion fold change vs. IgG control, 0.01 nM IgG (mixed lymphocyte reaction)",human PD-1 on cells [4],1.17 fold
same,"IFN-γ secretion fold change vs. IgG control, 0.1 nM IgG (mixed lymphocyte reaction)",human PD-1 on cells [4],1.91 fold
same,"IFN-γ secretion fold change vs. IgG control, 1 nM IgG (mixed lymphocyte reaction)",human PD-1 on cells [4],2.48 fold
same,"IFN-γ secretion fold change vs. IgG control, 10 nM IgG (mixed lymphocyte reaction)",human PD-1 on cells [4],2.04 fold
same,"IFN-γ secretion fold change vs. IgG control, 100 nM IgG (mixed lymphocyte reaction)",human PD-1 on cells [4],2.07 fold
"Fab of Antibody D in IgG1 format (Fab, V domains shown, also called Fab in solution (row Antibody D in IgG1 format)) VH: QVQLVQSGAEVKKPGSSVKVSCKASGGTFSSYAISWVRQAPGQGLEWMGLIIPMFDTAGYAQKFQGRVAITVDESTSTAYMELSSLRSEDTAVYYCARAEHSSTGTFDYWGQGTLVTVSS VL: DIQMTQSPSSVSASVGDRVTITCRASQGISSWLAWYQQKPGKAPKLLISAASSLQSGVPSRFSGSGSGTDFTLTISSLQPEDFATYYCQQANHLPFTFGGGTKVEIK",Kd,hPD-1_Fc [5],0.56 nM
same,Kd,cynoPD-1_Fc,0.67 nM
same,fold lower KD than nivolumab and pembrolizumab,hPD-1_Fc [6],3 fold
"Antibody D in IgG1 format (antibody, V domains shown, IgG1 format, expressed in yeast; also called Antibody D in an IgG1 format and expressed in yeast) VH: QVQLVQSGAEVKKPGSSVKVSCKASGGTFSSYAISWVRQAPGQGLEWMGLIIPMFDTAGYAQKFQGRVAITVDESTSTAYMELSSLRSEDTAVYYCARAEHSSTGTFDYWGQGTLVTVSS VL: DIQMTQSPSSVSASVGDRVTITCRASQGISSWLAWYQQKPGKAPKLLISAASSLQSGVPSRFSGSGSGTDFTLTISSLQPEDFATYYCQQANHLPFTFGGGTKVEIK",Kd,[7],0.9 pM
same,Kd,b-PD-1 monomer [8],0.012 nM
same,fold lower KD than nivolumab and pembrolizumab,hPD-1_HIS [9],6 fold
same,Kd,hPD-1_HIS [10],0.31 nM
"Antibody D (S228P IgG4) (antibody, V domains shown) VH: QVQLVQSGAEVKKPGSSVKVSCKASGGTFSSYAISWVRQAPGQGLEWMGLIIPMFDTAGYAQKFQGRVAITVDESTSTAYMELSSLRSEDTAVYYCARAEHSSTGTFDYWGQGTLVTVSS VL: DIQMTQSPSSVSASVGDRVTITCRASQGISSWLAWYQQKPGKAPKLLISAASSLQSGVPSRFSGSGSGTDFTLTISSLQPEDFATYYCQQANHLPFTFGGGTKVEIKR","IL-2 secretion fold change vs. IgG control, 0.01 nM IgG (mixed lymphocyte reaction)",human PD-1 on cells [2],1.25 fold
same,"IL-2 secretion fold change vs. IgG control, 0.1 nM IgG (mixed lymphocyte reaction)",human PD-1 on cells [2],1.64 fold
same,"IL-2 secretion fold change vs. IgG control, 1 nM IgG (mixed lymphocyte reaction)",human PD-1 on cells [2],2.45 fold
same,"IL-2 secretion fold change vs. IgG control, 10 nM IgG (mixed lymphocyte reaction)",human PD-1 on cells [2],2.63 fold
same,"IL-2 secretion fold change vs. IgG control, 100 nM IgG (mixed lymphocyte reaction)",human PD-1 on cells [2],3.08 fold
same,EC50,human PD-1 on cells [3],0.978 nM
same,Kd,[11],0.104 nM
same,koff,[11],2.98e-05 s⁻¹
same,kon,[11],286000 M⁻¹ s⁻¹
same,IC50,[12],0.3 nM
same,Kd,[13],0.103 nM
same,koff,[13],3.86e-05 s⁻¹
same,kon,[13],377000 M⁻¹ s⁻¹
same,Kd,[14],0.118 nM
same,koff,[14],4.22e-05 s⁻¹
same,kon,[14],358000 M⁻¹ s⁻¹
same,"IFN-γ secretion fold change vs. IgG control, 0.01 nM IgG (mixed lymphocyte reaction)",human PD-1 on cells [4],1.32 fold
same,"IFN-γ secretion fold change vs. IgG control, 0.1 nM IgG (mixed lymphocyte reaction)",human PD-1 on cells [4],1.94 fold
same,"IFN-γ secretion fold change vs. IgG control, 1 nM IgG (mixed lymphocyte reaction)",human PD-1 on cells [4],2.26 fold
same,"IFN-γ secretion fold change vs. IgG control, 10 nM IgG (mixed lymphocyte reaction)",human PD-1 on cells [4],1.99 fold
same,"IFN-γ secretion fold change vs. IgG control, 100 nM IgG (mixed lymphocyte reaction)",human PD-1 on cells [4],1.72 fold
same,IC50,[15],0.34 nM
same,Kd,[16],0.102 nM
same,koff,[16],3.6e-05 s⁻¹
same,kon,[16],354000 M⁻¹ s⁻¹
"Antibody G in IgG1 format (antibody, V domains shown, IgG1 format, expressed in yeast; also called Antibody G in an IgG1 format and expressed in yeast) VH: QVQLVQSGAEVKKPGSSVRVSCKASGGTLSSYAISWVRQAPGQGLEWMGLIIPMFGAAGYAQRFQGRVTITADESASTAYMELSSLRSEDTAVYYCARAEHSSTGTFDYWGQGTLVTVSS VL: DIQMTQSPSSVSASVGDRVTITCRASQGISSWLAWYQQKPGKAPKLLISAASSLQSGVPSRFSGSGSGTDFTLTISSLQPEDFATYYCQQANHLPFTFGGGTKVEIK",fold lower KD than nivolumab and pembrolizumab,hPD-1_HIS [9],4 fold
same,Kd,[17],1 pM
same,Kd,hPD-1_HIS [10],0.44 nM
same,Kd,b-PD-1 monomer [18],0.014 nM
"Fab of Antibody G in IgG1 format (Fab, V domains shown, also called Fab in solution (row Antibody G in IgG1 format)) VH: QVQLVQSGAEVKKPGSSVRVSCKASGGTLSSYAISWVRQAPGQGLEWMGLIIPMFGAAGYAQRFQGRVTITADESASTAYMELSSLRSEDTAVYYCARAEHSSTGTFDYWGQGTLVTVSS VL: DIQMTQSPSSVSASVGDRVTITCRASQGISSWLAWYQQKPGKAPKLLISAASSLQSGVPSRFSGSGSGTDFTLTISSLQPEDFATYYCQQANHLPFTFGGGTKVEIK",Kd,hPD-1_Fc [5],0.49 nM
same,Kd,cynoPD-1_Fc,0.59 nM
same,fold lower KD than nivolumab and pembrolizumab,hPD-1_Fc [6],4 fold
